Measured values as given in paper PMC8062786.

Target: wild-type SARS-CoV 3CL protease (mature enzyme), as used for analytical ultracentrifugation (SARS-CoV)
Assay: AUC

In the case of “wild-type SARS-CoV 3CL protease (mature enzyme), as used for analytical ultracentrifugation”, the Kd is reported as 0.35 nM.
